Laboratory results as given in PMC4605311, “Structure of mitochondrial poly(A) RNA polymerase reveals the structural basis for dimerization, ATP selectivity and the SPAX4 disease phenotype” (Nucleic Acids Research, 2015).
Substitutions are numbered along the chain they refer to. Names may count otherwise.

B1: chicken mitochondrial poly(A) RNA polymerase, mature wild type (residues 37–568) (enzyme, Gallus gallus, UniProt F1NBW0 37-568, looked up)
chain: AGGAEETDAEVSARKKTFTEVQTERLEQADRSVLIKCPSKLNEKKLLQYLSSHGKIDNYFFFENRGIHALIEFSEKSSVASLQAVTGIPKAAEHHVVPYKSRLFTFTLKNPGSQAAEERPVKISPQSHIPVNELIPKLCHADSISSQMYILLNEYQLTEENIKLRYLACSLVRDFARAYFPDSTVKPFGSSVNTFGKLGCDVDMFLDFHDIQKHATKMKKGPFEMEYQMKRLPSERLATQKILSIIGDCLDNFGPGYSSVQKILNARCPLVKFSHQPTGFQCDLSVSNSIAIRCSELLYIYGCLDPRVRALVFSLRCWARVHGLTNSVPGTWITNFSLTMMIMFFLQKRSPPIIPTLDQLKELADEKDKHVIGGYDCSFVSDLSKIKPTKNTETLDELLCDFFQYFGNFDFRKNSLNLRKGKEVNKPESSPLYIWNPFEQDLNISKNVNQPQLEKFVAMARESAWILQKEDKTQQMINKEPWGLAAVLIPFGKSNPNTMKSRTKGIGSETIKSLLDSLKLSDANNLQKAVGK
notes: Expression construct pNIC28-BsaI; also called mtPAP; WT mtPAP; source: E. coli KRX/pRARE2, purified (HisTrap, TEV cleavage, HiTrap Heparin)
B2: chicken mtPAP K112E mutant (enzyme, Gallus gallus, UniProt F1NBW0 37-568, looked up)
chain: B1 chain with K76E
notes: mitochondrial poly(A) polymerase (mtPAP), Gallus gallus, residues 37-568, K112E
B3: chicken mtPAP N472D mutant (residues 37–568) (enzyme, Gallus gallus, UniProt F1NBW0 37-568, looked up)
chain: B1 chain with N436D
notes: mitochondrial poly(A) polymerase (mtPAP), Gallus gallus, residues 37-568, N472D (counterpart of human N478D); Purified by the same procedure as the wild type; also called N472D mtPAP; SPAX4 N472D mtPAP mutant; source: E. coli KRX/pRARE2, purified (HisTrap, TEV cleavage, HiTrap Heparin)
B4: chicken mtPAP R272E mutant (enzyme, Gallus gallus, UniProt F1NBW0 37-568, looked up)
chain: B1 chain with R236E
notes: mitochondrial poly(A) polymerase (mtPAP), Gallus gallus, residues 37-568, R272E
B5: chicken mtPAP triple mutant K76E, K80–81E (enzyme, Gallus gallus, UniProt F1NBW0 37-568, looked up)
chain: B1 chain with K40E, K44E, K45E
notes: mitochondrial poly(A) polymerase (mtPAP), Gallus gallus, residues 37-568, charge-reversal triple mutant; The methods list K80–81E and K76E apart; the results call it a triple mutant

Key:
[1] = molecular target: the molecule itself; experiment: crystal structure; hanging drop, 0.2 M NaCl, 0.1 M Bis-Tris pH 5.5, 20–23% PEG 3350; apo crystals and crystals soaked with 10 mM MgCl2 and 10 mM nucleotide; two mtPAP molecules in the asymmetric unit
[2] = molecular target: the molecule itself; experiment: SEC; Superdex-200 elution profiles of WT and mutated mtPAP proteins

| Protein | binding result [2] | also measured |
| --- | --- | --- |
| B1 |  | stoichiometry N [1]: 2 |
| B2 | binds |  |
| B3 |  | binding result [1]: binds |
| B4 | binds |  |
| B5 | binds |  |
